In patent US20180155451A1 (published 2018):

biological target: T1, FcγRIIIa extracellular domain with C-terminal His tag (human, UniProt P08637 17-208); experiment: SPR relative binding; GpH7-B3/GpL16-k0 = 100
T1 construct: extracellular domain; also called FcgRIIIa; 3a; not shown: His tag at the C terminus
Method: Analysis of interaction between objective antibody and the FcγR was carried out using Biacore T100 (GE Healthcare). HBS-EP+ (GE Healthcare) was used as the running buffer, and the measurement temperature was set to 25° C. Chips produced by immobilizing the antigen peptide by the amine coupling method to a Series S Sencor Chip CM5 (GE Healthcare), or alternatively, chips produced by allowing preliminarily biotinylated antigen peptides to interact with and immobilize onto a Series S Sensor Chip SA (certified) (GE Healthcare) were used. Antibodies of interest were captured onto an antigen peptide-immobilized chip, and allowed to interact to each FcγR diluted with running buffer. To regenerate and repeatedly use the chip, the antibodies captured on the chip were washed off by reacting 10 mM glycine-HCl, pH 1.5.
The FcγR-binding activity of each antibody was assessed primarily using as an indicator the FcγR-binding activity and dissociation constant for FcγR.

T1 sequence (P08637 17-208): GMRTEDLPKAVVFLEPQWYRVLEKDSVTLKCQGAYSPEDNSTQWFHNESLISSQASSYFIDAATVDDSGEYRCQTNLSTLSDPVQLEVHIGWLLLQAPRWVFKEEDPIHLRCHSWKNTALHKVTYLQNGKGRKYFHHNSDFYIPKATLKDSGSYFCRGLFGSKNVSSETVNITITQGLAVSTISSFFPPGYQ

| Binder | Ho/Con_3a |
| --- | --- |
| GpH7-B3 variant S337_04F/GpL16-k0 (antibody, human IgG1, kappa, also called Ho Ab S337_04F) heavy: not shown light: DIVMTQSPLSLPVTPGEPASISCQASESLVHSNRNTYLHWYLQKPGQSPQLLIYKVSNRFSGVPDRFSGSGSGTDFTLKISRVEAEDVGVYYCSQNTHVPPTFGQGTKVEIERTVAAPSVFIFPPSDEQLKSGTASVVCLLNNFYPREAKVQWKVDNALQSGNSQESVTEQDSKDSTYSLSSTLTLSKADYEKHKVYACEVTHQGLSSPVTKSFNRGEC | 95.6 % of control |
| GpH7-B3 variant A330_07I/GpL16-k0 (antibody, human IgG1, kappa, also called Ho Ab A330_07I) heavy: not shown light: DIVMTQSPLSLPVTPGEPASISCQASESLVHSNRNTYLHWYLQKPGQSPQLLIYKVSNRFSGVPDRFSGSGSGTDFTLKISRVEAEDVGVYYCSQNTHVPPTFGQGTKVEIERTVAAPSVFIFPPSDEQLKSGTASVVCLLNNFYPREAKVQWKVDNALQSGNSQESVTEQDSKDSTYSLSSTLTLSKADYEKHKVYACEVTHQGLSSPVTKSFNRGEC | 93 % of control |
| GpH7-B3 variant E333_02A/GpL16-k0 (antibody, human IgG1, kappa, also called Ho Ab E333_02A) heavy: not shown light: DIVMTQSPLSLPVTPGEPASISCQASESLVHSNRNTYLHWYLQKPGQSPQLLIYKVSNRFSGVPDRFSGSGSGTDFTLKISRVEAEDVGVYYCSQNTHVPPTFGQGTKVEIERTVAAPSVFIFPPSDEQLKSGTASVVCLLNNFYPREAKVQWKVDNALQSGNSQESVTEQDSKDSTYSLSSTLTLSKADYEKHKVYACEVTHQGLSSPVTKSFNRGEC | 93.3 % of control |
| GpH7-B3 variant A330_05P/GpL16-k0 (antibody, human IgG1, kappa, also called Ho Ab A330_05P) heavy: not shown light: DIVMTQSPLSLPVTPGEPASISCQASESLVHSNRNTYLHWYLQKPGQSPQLLIYKVSNRFSGVPDRFSGSGSGTDFTLKISRVEAEDVGVYYCSQNTHVPPTFGQGTKVEIERTVAAPSVFIFPPSDEQLKSGTASVVCLLNNFYPREAKVQWKVDNALQSGNSQESVTEQDSKDSTYSLSSTLTLSKADYEKHKVYACEVTHQGLSSPVTKSFNRGEC | 56.6 % of control |
| GpH7-B3 variant E333_13S/GpL16-k0 (antibody, human IgG1, kappa, also called Ho Ab E333_13S) heavy: not shown light: DIVMTQSPLSLPVTPGEPASISCQASESLVHSNRNTYLHWYLQKPGQSPQLLIYKVSNRFSGVPDRFSGSGSGTDFTLKISRVEAEDVGVYYCSQNTHVPPTFGQGTKVEIERTVAAPSVFIFPPSDEQLKSGTASVVCLLNNFYPREAKVQWKVDNALQSGNSQESVTEQDSKDSTYSLSSTLTLSKADYEKHKVYACEVTHQGLSSPVTKSFNRGEC | 95.1 % of control |
| GpH7-B3 variant E333_09D/GpL16-k0 (antibody, human IgG1, kappa, also called Ho Ab E333_09D) heavy: not shown light: DIVMTQSPLSLPVTPGEPASISCQASESLVHSNRNTYLHWYLQKPGQSPQLLIYKVSNRFSGVPDRFSGSGSGTDFTLKISRVEAEDVGVYYCSQNTHVPPTFGQGTKVEIERTVAAPSVFIFPPSDEQLKSGTASVVCLLNNFYPREAKVQWKVDNALQSGNSQESVTEQDSKDSTYSLSSTLTLSKADYEKHKVYACEVTHQGLSSPVTKSFNRGEC | 109 % of control |
| GpH7-B3 variant E333_03V/GpL16-k0 (antibody, human IgG1, kappa, also called Ho Ab E333_03V) heavy: not shown light: DIVMTQSPLSLPVTPGEPASISCQASESLVHSNRNTYLHWYLQKPGQSPQLLIYKVSNRFSGVPDRFSGSGSGTDFTLKISRVEAEDVGVYYCSQNTHVPPTFGQGTKVEIERTVAAPSVFIFPPSDEQLKSGTASVVCLLNNFYPREAKVQWKVDNALQSGNSQESVTEQDSKDSTYSLSSTLTLSKADYEKHKVYACEVTHQGLSSPVTKSFNRGEC | 86.5 % of control |
| GpH7-B3 variant E333_20W/GpL16-k0 (antibody, human IgG1, kappa, also called Ho Ab E333_20W) heavy: not shown light: DIVMTQSPLSLPVTPGEPASISCQASESLVHSNRNTYLHWYLQKPGQSPQLLIYKVSNRFSGVPDRFSGSGSGTDFTLKISRVEAEDVGVYYCSQNTHVPPTFGQGTKVEIERTVAAPSVFIFPPSDEQLKSGTASVVCLLNNFYPREAKVQWKVDNALQSGNSQESVTEQDSKDSTYSLSSTLTLSKADYEKHKVYACEVTHQGLSSPVTKSFNRGEC | 90.9 % of control |
| GpH7-B3 variant E333_04F/GpL16-k0 (antibody, human IgG1, kappa, also called Ho Ab E333_04F) heavy: not shown light: DIVMTQSPLSLPVTPGEPASISCQASESLVHSNRNTYLHWYLQKPGQSPQLLIYKVSNRFSGVPDRFSGSGSGTDFTLKISRVEAEDVGVYYCSQNTHVPPTFGQGTKVEIERTVAAPSVFIFPPSDEQLKSGTASVVCLLNNFYPREAKVQWKVDNALQSGNSQESVTEQDSKDSTYSLSSTLTLSKADYEKHKVYACEVTHQGLSSPVTKSFNRGEC | 87.1 % of control |

Other lines, results leading:

| Ho/Con_3a | Binder |
| --- | --- |
| 107 % of control | GpH7-B3 variant I336_06M/GpL16-k0 (antibody, human IgG1, kappa, also called Ho Ab I336_06M) heavy: not shown light: DIVMTQSPLSLPVTPGEPASISCQASESLVHSNRNTYLHWYLQKPGQSPQLLIYKVSNRFSGVPDRFSGSGSGTDFTLKISRVEAEDVGVYYCSQNTHVPPTFGQGTKVEIERTVAAPSVFIFPPSDEQLKSGTASVVCLLNNFYPREAKVQWKVDNALQSGNSQESVTEQDSKDSTYSLSSTLTLSKADYEKHKVYACEVTHQGLSSPVTKSFNRGEC |
| 110 % of control | GpH7-B3 variant I336_03V/GpL16-k0 (antibody, human IgG1, kappa, also called Ho Ab I336_03V) heavy: not shown light: DIVMTQSPLSLPVTPGEPASISCQASESLVHSNRNTYLHWYLQKPGQSPQLLIYKVSNRFSGVPDRFSGSGSGTDFTLKISRVEAEDVGVYYCSQNTHVPPTFGQGTKVEIERTVAAPSVFIFPPSDEQLKSGTASVVCLLNNFYPREAKVQWKVDNALQSGNSQESVTEQDSKDSTYSLSSTLTLSKADYEKHKVYACEVTHQGLSSPVTKSFNRGEC |
| 118 % of control | GpH7-B3 variant H268_02A/GpL16-k0 (antibody, human IgG1, kappa, also called Ho Ab H268_02A) heavy: not shown light: DIVMTQSPLSLPVTPGEPASISCQASESLVHSNRNTYLHWYLQKPGQSPQLLIYKVSNRFSGVPDRFSGSGSGTDFTLKISRVEAEDVGVYYCSQNTHVPPTFGQGTKVEIERTVAAPSVFIFPPSDEQLKSGTASVVCLLNNFYPREAKVQWKVDNALQSGNSQESVTEQDSKDSTYSLSSTLTLSKADYEKHKVYACEVTHQGLSSPVTKSFNRGEC |
| 95.8 % of control | GpH7-B3 variant I336_08L/GpL16-k0 (antibody, human IgG1, kappa, also called Ho Ab I336_08L) heavy: not shown light: DIVMTQSPLSLPVTPGEPASISCQASESLVHSNRNTYLHWYLQKPGQSPQLLIYKVSNRFSGVPDRFSGSGSGTDFTLKISRVEAEDVGVYYCSQNTHVPPTFGQGTKVEIERTVAAPSVFIFPPSDEQLKSGTASVVCLLNNFYPREAKVQWKVDNALQSGNSQESVTEQDSKDSTYSLSSTLTLSKADYEKHKVYACEVTHQGLSSPVTKSFNRGEC |
| 104 % of control | GpH7-B3 variant I336_02A/GpL16-k0 (antibody, human IgG1, kappa, also called Ho Ab I336_02A) heavy: not shown light: DIVMTQSPLSLPVTPGEPASISCQASESLVHSNRNTYLHWYLQKPGQSPQLLIYKVSNRFSGVPDRFSGSGSGTDFTLKISRVEAEDVGVYYCSQNTHVPPTFGQGTKVEIERTVAAPSVFIFPPSDEQLKSGTASVVCLLNNFYPREAKVQWKVDNALQSGNSQESVTEQDSKDSTYSLSSTLTLSKADYEKHKVYACEVTHQGLSSPVTKSFNRGEC |
| 95.4 % of control | GpH7-B3 variant I332_06M/GpL16-k0 (antibody, human IgG1, kappa, also called Ho Ab I332_06M) heavy: not shown light: DIVMTQSPLSLPVTPGEPASISCQASESLVHSNRNTYLHWYLQKPGQSPQLLIYKVSNRFSGVPDRFSGSGSGTDFTLKISRVEAEDVGVYYCSQNTHVPPTFGQGTKVEIERTVAAPSVFIFPPSDEQLKSGTASVVCLLNNFYPREAKVQWKVDNALQSGNSQESVTEQDSKDSTYSLSSTLTLSKADYEKHKVYACEVTHQGLSSPVTKSFNRGEC |
| 90.3 % of control | GpH7-B3 variant H268_18N/GpL16-k0 (antibody, human IgG1, kappa, also called Ho Ab H268_18N) heavy: not shown light: DIVMTQSPLSLPVTPGEPASISCQASESLVHSNRNTYLHWYLQKPGQSPQLLIYKVSNRFSGVPDRFSGSGSGTDFTLKISRVEAEDVGVYYCSQNTHVPPTFGQGTKVEIERTVAAPSVFIFPPSDEQLKSGTASVVCLLNNFYPREAKVQWKVDNALQSGNSQESVTEQDSKDSTYSLSSTLTLSKADYEKHKVYACEVTHQGLSSPVTKSFNRGEC |
| 101 % of control | GpH7-B3 variant I336_18N/GpL16-k0 (antibody, human IgG1, kappa, also called Ho Ab I336_18N) heavy: not shown light: DIVMTQSPLSLPVTPGEPASISCQASESLVHSNRNTYLHWYLQKPGQSPQLLIYKVSNRFSGVPDRFSGSGSGTDFTLKISRVEAEDVGVYYCSQNTHVPPTFGQGTKVEIERTVAAPSVFIFPPSDEQLKSGTASVVCLLNNFYPREAKVQWKVDNALQSGNSQESVTEQDSKDSTYSLSSTLTLSKADYEKHKVYACEVTHQGLSSPVTKSFNRGEC |
| 104 % of control | GpH7-B3 variant I332_01G/GpL16-k0 (antibody, human IgG1, kappa, also called Ho Ab I332_01G) heavy: not shown light: DIVMTQSPLSLPVTPGEPASISCQASESLVHSNRNTYLHWYLQKPGQSPQLLIYKVSNRFSGVPDRFSGSGSGTDFTLKISRVEAEDVGVYYCSQNTHVPPTFGQGTKVEIERTVAAPSVFIFPPSDEQLKSGTASVVCLLNNFYPREAKVQWKVDNALQSGNSQESVTEQDSKDSTYSLSSTLTLSKADYEKHKVYACEVTHQGLSSPVTKSFNRGEC |
| 41.6 % of control | GpH7-B3 variant G236_15Y/GpL16-k0 (antibody, human IgG1, kappa, also called Ho Ab G236_15Y) heavy: not shown light: DIVMTQSPLSLPVTPGEPASISCQASESLVHSNRNTYLHWYLQKPGQSPQLLIYKVSNRFSGVPDRFSGSGSGTDFTLKISRVEAEDVGVYYCSQNTHVPPTFGQGTKVEIERTVAAPSVFIFPPSDEQLKSGTASVVCLLNNFYPREAKVQWKVDNALQSGNSQESVTEQDSKDSTYSLSSTLTLSKADYEKHKVYACEVTHQGLSSPVTKSFNRGEC |

biological target: T2, FcγRIa extracellular domain with C-terminal His tag (human, UniProt P12314 16-292); experiment: SPR (Biacore), relative FcγRIa binding, GpH7-A5/GpH7-B3/GpL16-k0 (HeCon Ab) = 100
T2 construct: extracellular domain; soluble analyte in Biacore; also called FcgRI; CD64
T2 sequence (P12314 16-292): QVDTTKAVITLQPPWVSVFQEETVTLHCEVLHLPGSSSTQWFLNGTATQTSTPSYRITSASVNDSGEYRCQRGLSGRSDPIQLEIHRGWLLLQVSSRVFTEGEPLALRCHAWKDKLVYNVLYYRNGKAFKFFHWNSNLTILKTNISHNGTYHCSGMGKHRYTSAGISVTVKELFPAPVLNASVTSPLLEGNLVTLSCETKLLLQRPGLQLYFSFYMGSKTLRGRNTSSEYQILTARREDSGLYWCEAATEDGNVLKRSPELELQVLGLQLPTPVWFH

| He/Con_1a | Binder |
| --- | --- |
| 108 % of control | GpH7-A5/GpH7-B3 variant Y300_07I/GpL16-k0 (antibody, human IgG1, kappa, heterodimerized antibody, mutation in one H chain only; also called Y300_07I He Ab) heavy 1: not shown heavy 2: not shown light: DIVMTQSPLSLPVTPGEPASISCQASESLVHSNRNTYLHWYLQKPGQSPQLLIYKVSNRFSGVPDRFSGSGSGTDFTLKISRVEAEDVGVYYCSQNTHVPPTFGQGTKVEIERTVAAPSVFIFPPSDEQLKSGTASVVCLLNNFYPREAKVQWKVDNALQSGNSQESVTEQDSKDSTYSLSSTLTLSKADYEKHKVYACEVTHQGLSSPVTKSFNRGEC |
| 111 % of control | GpH7-A5/GpH7-B3 variant Y300_16H/GpL16-k0 (antibody, human IgG1, kappa, heterodimerized antibody, mutation in one H chain only; also called Y300_16H He Ab) heavy 1: not shown heavy 2: not shown light: DIVMTQSPLSLPVTPGEPASISCQASESLVHSNRNTYLHWYLQKPGQSPQLLIYKVSNRFSGVPDRFSGSGSGTDFTLKISRVEAEDVGVYYCSQNTHVPPTFGQGTKVEIERTVAAPSVFIFPPSDEQLKSGTASVVCLLNNFYPREAKVQWKVDNALQSGNSQESVTEQDSKDSTYSLSSTLTLSKADYEKHKVYACEVTHQGLSSPVTKSFNRGEC |
